This is an account of results in patent US20220403332A1, “SELF-ORGANIZING NEURAL ECTODERMAL LINEAGE CELLULAR STRUCTURES, AND COMPOSITIONS AND METHODS RELATING THERETO” (THE ROCKEFELLER UNIVERSITY, priority 2019, published 2022).

What all share (format): cell-based, human
Experiment [1] deals with day 7 neuruloid. As to the kind of experiment: neuruloid formation with blebbistatin, day 7 immunofluorescence. The following applies: day 7 neuruloid treated with Blebbistatin 5 μM; stained for DAPI, N-CAD, PAX6, COL4 (FIG. 12E). From the text:
FIG. 12—related to FIG. 6. (A) RUES2 and 56CAG background distribution within the main cell populations found in the neuruloid. All clusters are well represented in either background although 56CAG has a higher relative proportion of NC and placode cells. (B) Gene ontology analyses using DAVID (www.david.ncifcrf.gov) for NE- and NC-specific DEG between RUES2 and 56CAG. (C) Violin plots showing the distribution of normalized gene expression values for the genes in FIGS. 6B and 6C. (D) qPCR validation of the down-regulation of WNT/PCP and cytoskeleton-associated genes in the 56CAG neuruloid versus WT RUES2. (E) Representative image of a day 7 neuruloid treated with Blebbistatin (5 μM) and stained for DAPI, N-CAD, PAX6, and COL4. (Top) side view, (Bottom) top view.
In order to unravel the molecular mechanisms underlying the morphogenetic defect, single-cell RNA-seq data of neuruloids in WT and 56CAG background was explored. All major cell populations found in the WT neuruloid were also present in the 56CAG background, supporting the lack of influence on fate specification (FIG. 12A). […] Using Seurat to identify differentially expressed genes (DEG) between 56CAG and RUES2 cell lines, 499 misregulated genes specific to the NE (adjusted p-value ≤0.05 and a minimum percentage difference in cells expressing the gene ≥10%) and 663 specific for the NC population was found (FIG. 6E). […]

Experiment [2] deals with 500 μm micropatterned colonies (hESCs, RUES2). As to the kind of experiment: neuruloid formation at different BMP4 concentrations, day 7 immunofluorescence. The following applies: 500 μm colonies at day 7. The text has this:
FIG. 2 depicts self-organization into neuruloids on micropatterns. (A) Schematic of the neuruloid differentiation protocol. (B) Immunofluorescence imaging of 80, 200 and 500 μm of day 7 micropatterned colonies. Samples were stained with DAPI (gray), PAX6 (green), and N-CAD (orange). (C) Immunofluorescence imaging of 500 μm of day 7 micropatterned colonies. Samples were stained with DAPI (gray), PAX6 (green), and COL4 (Collagen IV, orange). Side view of resliced z-stack around PAX6+ center region, colony edge region is also shown. (D) replicates with PAX6 (green) and SOX10 (red). (E) (Left) Immunofluorescence imaging of 500 μm micropatterned colonies at day 7 with different BMP4 concentrations: 0, 3, 13, and 50 ng/ml. Samples were stained with PAX6 (green), SOX10 (red) and cranial placode marker SIX1 (orange). (Right) Quantifications of SIX1 positive cell number. Data are mean±standard deviation. (F) (Top Left) Sketch of the ectodermal compartment at neurulation in vivo. (Top Right) Sketch of the neuruloid on micropattern. (Middle panel) Side view of the day 7 neuruloid with 3 ng/ml of BMP. Samples were stained with DAPI, PAX6, SOX10, SIX1, and non-neural ectoderm maker TFAP2A. Note that the TFAP2A+ also stain a few SOX10 and SIX1 positive cells. The non-neural ectoderm cells are only TFAP2A positive. (Bottom) Top view by multiple z from bottom to top. All scale bars represent 50 μm. […]

Experiment [3] concerns pSMAD1. As to the kind of experiment: signaling dynamics time-course after BMP4 presentation (immunofluorescence, western blot). As for the experimental part:
FIG. 4 depicts coupling of cell fate specification with a two-step morphogenesis mechanism during neuruloid formation. (A) (Top) time course immunofluorescence analysis of the neuruloid from day 3 to 4. Day 3 micropattern colonies were treated with BMP4 (3 ng/ml) for 1, 3, 5, 10, and 24 hours then stained with PAX6, pSMAD1, and TFAP2A. (Bottom Left) Western blot analysis of the micropattern colonies treated with BMP as above. Sample were stained with anti-pSMAD1/5 antibody. Anti-total SMAD antibody was used as a control. (Bottom Right) Quantification of the western blot analysis. (B) Time-lapse video microscopy imaging of neuruloid formation from day 3 to 6 using the live reporter line (PAX6::H2B-Citrin and SOX10::H2B-tdTomato). Images were recorded every 30 min from day 3 to the end of day 5 (66 hours total). Representative images are shown (a; first image of day 3, b; first image of day 4, c; first image of day 5, d; last image of day 5). […] (E) Associated quantification of PAX6, SIX1, and SOX10 area of the neuruloid treated with indicated drugs. […]
To uncover the molecular mechanisms of neuruloid self-organization, the signaling dynamics over a time-course after BMP4 presentation was followed. […] Only a few SOX10+ cells were detected during this initial phase, but a large expansion occurred in the SOX10 area concomitant with the PAX6 domain condensation starting at day 5. […]
A general note: Immunoblotting shows a protein as a band on a membrane.

On to `Cc1ccc2c(c1)C(=O)C1(O)CCN(c3ccccc3)C1=N2` (centres unmarked) [blebbistatin], for which the “central neuro-epithelium morphology (opened versus closed)” value in experiment [1] was “phenocopies the opened neuro-epithelium observed in HD and Htt−/− neuruloids”.

B1: BMP4: bone morphogenetic protein (BMP) used as morphogen to drive neuruloid formation (protein, UniProt P12644 293-408, looked up)
Bone morphogenetic protein 4: SPKHHSQRARKKNKNCRRHSLYVDFSDVGWNDWIVAPPGYQAFYCHGDCPFPLADHLNSTNHAIVQTLVNSVNSSIPKACCVPTELSAISMLYLDEYDKVVLKNYQEMVVEGCGCR
For B1, the “overall spatial distribution of cell types” value in experiment [2] (BMP4 0, 3, 13 and 50 ng/ml from day 3) is “independent of BMP4 concentration”. Further, in experiment [2] (BMP4 0, 3, 13 and 50 ng/ml from day 3 (FIG. 2E, 8H)), the “number of SIX1+ cells” value is given as “peaked at intermediate levels”. The TFAP2A induction result in experiment [3] (24 hours after BMP4 (3 ng/ml) presentation at day 3) is listed as “induction of TFAP2A+ in the same domain”. Further, in experiment [3] (day 3 colonies treated with BMP4 3 ng/ml for 1, 3, 5, 10, 24 hours (FIG. 4A)), the “pSMAD1 signaling after BMP4 presentation” value was “pulse of pSMAD1 restricted to the colony edge”.
